Columns and labels:
[1] = target: native phenolic acid decarboxylase from Neolentinus lepideus strain BRFM15 (NlePAD) (Neolentinus lepideus (strain BRFM15)); test: SEC; purified native NlePAD on a Superdex 75 Prep Grade column in buffer A (20 mM sodium phosphate pH 7.5, 0.4 M saccharose, 2 mM DTT); calibrated with BSA, alpha-amylase, ovalbumin, casein and lysozyme; native mass 43-45 kDa compared with the 22 kDa band in SDS-PAGE
[2] = substrate: COc1cc(/C=C/C(=O)O)cc(OC)c1O; test: HPLC of canolol formed, Lineweaver-Burk plot; assay type: biochemical, Neolentinus lepideus; settings: pH 6, 50 mM sodium phosphate, 37 °C, 0.5-10 mM substrate, 30 min, apparent KM
[3] = substrate: COc1cc(/C=C/C(=O)O)ccc1O; test: purified protein; settings: pH 6, 50 mM sodium phosphate, 45 °C, 0.5-10 mM substrate, 30 min, apparent KM

stoichiometry N [1] | Molecule | Km [2] | kcat/Km [2] | Km [3] | kcat/Km [3]
2 | native phenolic acid decarboxylase from Neolentinus lepideus strain BRFM15 (NlePAD) (enzyme) | – | – | – | –
– | NlePAD (Neolentinus lepideus HHB14362 ss-1) (protein, homodimer 2 x 22 kDa (SEC 43-45 kDa)) MSHEGATSEEFKQIEGKRFKYTYGLGWTYEMYFRSLTRCVYRILSGPLAGRVNFQHAHYQKIRDNVWQCSWLEETGTVVSMVVDFDQQTVKTFATFSRGHWDLPDQAKGWKRNPEDMARWRTLAQKGKDQADKHVLVEHAKMSELTSGQGDLPDIDDSWETM | 3.9 mM | 1600 M⁻¹ s⁻¹ | 2.6 mM | 14800 M⁻¹ s⁻¹
